This data set in a line: soluble on expression in E. coli; label from the status in PepcDB or PDB records.
For “MSLDKNDVVKKILESKKYENLDSDIVEKVVSISEKKYKLKEVENYSKKKLHQIWGSYYSAYPNWDKLLKKYNQGQLSIEDLLKIHSSTNERVATLNDFYTYVFGNIKHVSSILDFGCGFNPLALYQWNENEKIIYHAYDIDRAEIAFLSSIIGKLKTTIKYRFLNKESDVYKGTYDVVFLLKMLPVLKQQDVNILDFLQLFHTQNFVISFPIKSLSGKEKGMEENYQLWFESFTKGWIKILDSKVIGNELVYITSGFQKEGHHHHHH”, the “soluble on expression in E. coli” value is listed as “soluble”.

On to “MGSDKIHHHHHHENLYFQGMQVIKQKLTATCAQLTGYLHQPDTNAHQTNLPAIIIVPGGSYTHIPVAQAESLAMAFAGHGYQAFYLEYTLLTDQQPLGLAPVLDLGRAVNLLRQHAAEWHIDPQQITPAGFSVGGHIVALYNDYWATRVATELNVTPAMLKPNNVVLGYPVISPLLGFPKDDATLATWTPTPNELAADQHVNSDNQPTFIWTTADDPIVPATNTLAYATALATAKIPYELHVFKHGPHGLALANAQTAWKPDANQPHVAHWLTLALEWLADNR”, for which the “soluble on expression in E. coli” value is given as “soluble”.

In the case of “MSLKILMIMEEAEERRSLAEKFIENIKNVECFEASMGTEALFIMKKHTPDFVFLNSKLMDGTGFEYVNLLREVNCYAKFIFMGEDIEESITAFRFQAFYYLLRPFREEDLQFLLYRMGKEGHHHHHH”, the “soluble on expression in E. coli” value is listed as “soluble”.

Take “MCGRYALFSTPETLRETFGLTTAPVEPTYNAAPSQSLPVILDTEPTETVRARWGLVPSWSDGPQSAPDPINARAETLTETRHFQAAYEHRRCLVPVDGFYEWRDEDGATVPYFVSRTDGAPFLLAGLWETWTPEQTQTGLGEFTGDDGPSRDPETVRSFTVVTTQPNAFLADYHHRMAVVLTPAQGQRWLTDDDPTDLFTPGAFDLQAWRVSTAVNDPTVDRPALVEPALEHHHHHH”: the “soluble on expression in E. coli” value was “not soluble”.

As for “MAHHHHHHMGKALGMQRAKAQRLRKVVLRGSAAGSRSFLLYAQPTPNMLSETSGAVVDMCTDEFSIDIKEPSPEDAIVVASLTLRKKKMQKWREEKRTAAKPPKRAQSGASTCTLNFNKQETRWPLKISEC”, the “soluble on expression in E. coli” value is given as “not soluble”.

With “MGSDKIHHHHHHMQPYYWESAHGNFGDDLNLWLWDFLMPGFRDVHPETLLVGVGTVLNRALLPEGQHKLVIGSGFGYGSLPDMSRPEEWDIRSVRGPLTAKALGLPPEKGVIDPAVMLADMPEFQKLPKLYKKSFVPHWESAVAGVWASIVPKVGLTYIDPCGEAKAVIRQILQSEVIIAESMHGAIIADALRVPWVAVSTSASINSFKWNDWASTLGVTYKPLRVPLSSRAEAQIKGESFWGMSFKNHQPAPENPNDLAVDAAVLEQARGPKQTGLRTAVKQILAGPAMLNLWKASQAEPQLSRDSVLQERKARFLEVIEGVRRDYGIAAVS”, the “soluble on expression in E. coli” value was “not soluble”.

Regarding “MNPEEQIVTWLISLGVLESPKKTICDPEEFLKSSLKNGVVLCKLINRLMPGSVEKFCLDPQTEADCINNINDFLKGCATLQVEIFDPDDLYSGVNFSKVLSTLLAVNKATEDQLSERPCGRSSSLSAANTSQTNPQGAVSSTVSGLQRQSKTVEMTENGSHQLIVKARFNFKQTNEDELSVCKGDIIYVTRVEEGGWWEGTLNGRTGWFPSNYVREIKSSERPLSPKAVKGFETAPLTKNYYTVVLQNILDTEKEYAKELQSLLVTYLRPLQSNNNLSTVEVTSLLGNFEEVCTFQQTLCQALEECSKFPENQHKVGGCLLSLMPHFKSMYLAYCANHPSAVNVLTQHSDELEQFMENQGASSPGILILTTNLSKPFMRLEKYVTLLQELERHMEDTHPDHQDILKAIVAFKTLMGQCQDLRKRKQLELQILSEPIQAWEGEDIKNLGNVIFMSQVMVQYGACEEKEERYLMLFSNVLIMLSASPRMSGFIYQGKIPIAGTVVTRLDEIEGNDCTFEITGNTVERIVVHCNNNQDFQEWLEQLNRLIRGPASCSSLSKTSSSSCSAHSSFSSTGQPRGPLEPPQIIKPWSLSCLRPAPPLRPSAALGYKERMSYILKESSKSPKTMKKFLHKRKTERKPSEEEYVIRKSTAALEEDAQILKVIEAYCTSANFQQGHGSSTRKDSIPQVLLPEEEKLIIEETRSNGQTIMEEKSLVDTVYALKDEVRELKQENKRMKQCLEEELKSRRDLEKLVRRLLKQTDECIRGESSSKTSILP”, the “soluble on expression in E. coli” value is “soluble”.

Regarding “MKQLAISFCIILPLACFWVLNAEDAKEAPEIREANSTVFRQKRQFGCPSNCYSSCSSSSQCQRYSVASVCVQGCCCPGNNNLDTACSGGPAVAACLGGLCGQGFFCSSNNYCCRCQSGNSTGPCVNQVCPTGFMCNTNNYCCPLGSGGVLGSCVNGVCPTGYTCGAGNLCYLSSGK”, the “soluble on expression in E. coli” value is “not soluble”.

Regarding “MGSDKIHHHHHHMAQRVGPTRRGVDGTPVEPLSIKHPNAAGIDIGGASHYVAVPPDRVGKGEPAVREFGPHTEDLVAVANWLCACRIDTVALESTGVYWIALYELLQARGFEVWLVDAKSVRHVKARKSDVLDCQWLQQLHSFGLLSQAHRPDEQVCALREMSRLRDITIDERARHTQRMQKALTQMNVQLTNVITDITGETGMNIIRAIVAGGATAWPSRS”, the “soluble on expression in E. coli” value is reported as “not soluble”.

Regarding “MSLKGQNQHSVLRNFPVLGRIRYISEKIGPELRQYFFANDNEGKPFSRSDYKNIVLAGKYKSRMTSFGTGKDYLEGFYIQNTMFPLQATELHIDHTEFISTFLYHIENERLFSREEYRKSAQVDPFFLTDEHAVVLGSNLKHPFKIKRLVGQSGMSYGALGKNAITALSMGLAKAGTWMNTGEGGLSEYHLKGNGDIIYQIGPGLFGVRDHDGNFNRDMFINLAEHNNVRAFEIKLAQGAKTRGGHMEGNKVTEEIARIRNVKPYETINSPNRFDFIKNPTDLLNFVNHLQSIGQKPVGFKIVVSKVEEIEALVKTMIEIDTYPSFITVDGGEGGTGATFQELEDGVGLPLFTALPIVSSMLEKYGIRNKVKIFASGKLVTPDKIAIALGLGADLVNIARGMMISVGCIMSQQCHLNTCPVGVATTDPKKEKGLIVDEKQYRVTNYVTSLHEGLFNIAAAVGVHSPTEITSDHIIYRQLDGTTTSIQDYKLKLISEGHHHHHH”, the “soluble on expression in E. coli” value is reported as “not soluble”.

In the case of “WWYEGYRPNAGWALTDKPTYRDQQMQDKLDALSLYDILEREIIPLYYDKEDKSYSEGWIRYIRRSMMYIAPHFTMKRMLDDYYDKFYGPLAQRHRSISASSFALASEIADWKQQTATHWDEMRVVRVAATGFGLCLQDNHTMQTLEIEIEKGNLSAELNVELVVISDDNQGGVSLVQTIPLNLSEQSADNRWQKYNVNCSLKNPGLHRVAIRITPHSDLLPHKMDFAYVRWAAIS”, the “soluble on expression in E. coli” value is “not soluble”.

For the sequence “MGSDKIHHHHHHMKKLTVYLATTNPHKVEEIKMIAPEWMEILPSPEKIEVVEDGETFLENSVKKAVVYGKKLKHPVMADDSGLVIYSLGGFPGVMSARFMEEHSYKEKMRTILKMLEGKDRRAAFVCSATFFDPVENTLISVEDRVEGRIANEIRGTGGFGYDPFFIPDGYDKTFGEIPHLKEKISHRSKAFRKLFSVLEKILESENR”, the “soluble on expression in E. coli” value was “soluble”.

Take “MGSDKIHHHHHHMNIAILNHYASIPEVGSAETRHFELAKRFVREGHRVDIYIGDFSHLTGKRWSETFGWSFSKDGVDFIVVETREYTGNSLSRLLSSIDYYRNGRKKIIQKRYDVIIASSPHPFSWSLGWYYVRRKGGKFFIEIRDVWPDDLVKLGSLSYRHPVSKLFDHMCKKYYPKADGFISLVPDLSEHFNRLKVRPENFIYIPNGVDLKVFKDPEPCPVVDEVFSKVPDGKIKVVYAGSIVEHKGIKEFIETLSKVNKNLRDRFVFFFVGPSHADYLVSVKETAKDLQNVFFFDPVPKRCVPYLLQKADVLLFTLSQTVMDHPAVSSYKVVDYMASGKPVLCVDIENLPFKKTKGAVFFREDNLEEALRRIFEEDLSELGRRNREYVERERDWDRLYEKLRSFVLS”: the “soluble on expression in E. coli” value was “not soluble”.

On to “MATLFIADLHLCVEEPAITAGFLRFLAGEARKADALYILGDLFEAWIGDDDPNPLHRQMAAAIKAVSDSGVPCYFIHGNRDFLLGKRFARESGMTLLPEEKVLELYGRRVLIMHGDTLCTDDAGYQAFRAKVHKPWLQMLFLALPLFVRKRIAARMRANSKEANSSKSLAIMDVNQNAVVSAMEKHQVQWLIHGHTHRPAVHELIANQQPAFRVVLGAWHTEGSMVKVTADDVELIHFPFLEHHHHHH”, for which the “soluble on expression in E. coli” value is given as “not soluble”.

In the case of “RPGGDAREPRKIILHKGSTGLGFNIVGGEDGEGIFVSFILAGGPADLSGELRRGDRILSVNGVNLRNATHEQAAAALKRAGQSVTIVAQYRPEEYSRFES”, the “soluble on expression in E. coli” value is on record as “soluble”.

For “MGSDKIHHHHHHMPEPELMDDPLQARAYAEADFSCGDEALIQRLQEYLISLCKIPSPGSMIVDLGCGPGNICERLQRLWPEVMVLGIDGAQAMLDHALQRQKAMAAELKRLTYRCSNLSSLVNQCVDLKCSAALVVSNSLLHHLHDPNLLWQVTKYLAAPGAFVFHRDLRRPLSTKHAIALQQKHMQEAPSILIRDYLASLHAAFTLEEVQSQLVHAGLDHLHVIEVEDRYLDVFGTI”, the “soluble on expression in E. coli” value is “not soluble”.

In the case of “MIMLKEYSLKALQTAINQAMKLDEQMPQKLQKLDGKTLEMVITPLNVNFYIRFKGSEMQLLHRIDGRPDTIIHSNPIGLIRLSLLPTSKARSLFNDKIRISGDIELGQSVKKLFDEIDIDWEGHLAHFTGDVVAHQIGSFVRKGLEFKNQFSTSMQQNITEFLQEELRICPSRNELEDFFAEVDELVLSVDRLQAHINNLMSDDEGN”, the “soluble on expression in E. coli” value is “not soluble”.

With “RIVLQTSAHTLGDVVVTGYQTLERRKLTAAISKVEVSDAMVGAAKSIDQALTGQIAGVSVTNTSGAPGSPAKIRIRGTASMNGTQDPLWVLDGIPLEGTDIPKMDNKSSDNDIVNIGQSSIAGLSPNDIESITILKDAAATAIYGARAANGVIVVTTKRGKTGK”, the “soluble on expression in E. coli” value is recorded as “not soluble”.

For “MGRSATPEGDPARTMELLWGGGSTPISRPRNGKPGLTLDRIVETAVSVADAEGLDAVSMRRLASELGAGAMSLYTHVPGKTELVEVMLDRALSTLEPADDADEGWRERLAAAAHDYFHLLCAHPWMLGVVALSRPVLGPGGMAKYERELRAVEGLGLSDLDMDSVVTLLDSFVAGAARAAVDAAALAAQGEADSEWWQRVAPHFEKVFDPDRFPLAARVGASAGEHHDAAYVPAHAFEFGLTRLLDGVGALIVDGGTGGE”, the “soluble on expression in E. coli” value is reported as “not soluble”.

In the case of “MLFERIYEEGLAQASYFIGCQREGKAIVVDARRDIQTYLDLAAKNNMVISAVTETHIHADYLSGTRELAAATGAEIFLSGEGGADWQYGFTGTTLMHNSTIKLGNITITAKHTPGHTPEHLSFLITDGAVSKDPGFMLSGDFVFVGDVGRPDLLDEAAGGVDTRFAGAQQLFHSLKEQFLALPDHIQVYPGHGAGSPCGKALGAIPSTTVGYEKANAWWAPYLRSDDEAGFVEELLDGQPDAHAYFARMKKQNKQGPAVLSTLSPLVKLEAEEVVEKLGSEAVFVDTREQNQVHLGTVVGALNIPRGAKASNFAAWVIDPQKDAQDLIVLAPDANTAADFRDALLRVGIDTVRYFTNSIDGLPTFVPELISPAELAETNYDALIDIRAKSEFAAGSIPGAQQLSGGSAMWRLNELPAGGTLVTFCQSGARNTVVANALRRAGFTVIELEGSYAAWEKSAANPLEHHHHHH”, the “soluble on expression in E. coli” value is reported as “soluble”.

On to “GPGSMSYYCSGGHCLKYATPGREPPDPQLFPHYMQNAQNLWLHFSEWWPHGDGGSCPAPPTKGVVFIVPGLGEHTGRYDSVALRLNQEGYVVFSMDNQGTGGSEGERLYVECFTHFVDDVCAFVVFIQTRYAALKSQPTFLMGHSMGGLIATLVAQRDASGFRGVVLSGPALGLSKPVPCFMRSLAHFLSQWFPKLPVRKLDPDLVSYNTPVVQLVKQDPFYSNVTLRARFVDEMLIAQDRAAEAAGTSQFPFLIVHGEEDQLCSLETSKSFFKSALSEDKNLVSYPRAGHEVLTELCRAEVMAEVIKFIDERAR”, for which the “soluble on expression in E. coli” value is listed as “not soluble”.

The values above are taken from the DeepSol protein solubility set.
